Results published in US20190185562A1 (Regeneron, published 2019).

T1: mutant human LEPR (Y1141F) on HEK293.STAT3.Luc.GP130.hLEPR (Y1141F) cells (human, UniProt P48357 22-1165)
T1 sequence (looked up): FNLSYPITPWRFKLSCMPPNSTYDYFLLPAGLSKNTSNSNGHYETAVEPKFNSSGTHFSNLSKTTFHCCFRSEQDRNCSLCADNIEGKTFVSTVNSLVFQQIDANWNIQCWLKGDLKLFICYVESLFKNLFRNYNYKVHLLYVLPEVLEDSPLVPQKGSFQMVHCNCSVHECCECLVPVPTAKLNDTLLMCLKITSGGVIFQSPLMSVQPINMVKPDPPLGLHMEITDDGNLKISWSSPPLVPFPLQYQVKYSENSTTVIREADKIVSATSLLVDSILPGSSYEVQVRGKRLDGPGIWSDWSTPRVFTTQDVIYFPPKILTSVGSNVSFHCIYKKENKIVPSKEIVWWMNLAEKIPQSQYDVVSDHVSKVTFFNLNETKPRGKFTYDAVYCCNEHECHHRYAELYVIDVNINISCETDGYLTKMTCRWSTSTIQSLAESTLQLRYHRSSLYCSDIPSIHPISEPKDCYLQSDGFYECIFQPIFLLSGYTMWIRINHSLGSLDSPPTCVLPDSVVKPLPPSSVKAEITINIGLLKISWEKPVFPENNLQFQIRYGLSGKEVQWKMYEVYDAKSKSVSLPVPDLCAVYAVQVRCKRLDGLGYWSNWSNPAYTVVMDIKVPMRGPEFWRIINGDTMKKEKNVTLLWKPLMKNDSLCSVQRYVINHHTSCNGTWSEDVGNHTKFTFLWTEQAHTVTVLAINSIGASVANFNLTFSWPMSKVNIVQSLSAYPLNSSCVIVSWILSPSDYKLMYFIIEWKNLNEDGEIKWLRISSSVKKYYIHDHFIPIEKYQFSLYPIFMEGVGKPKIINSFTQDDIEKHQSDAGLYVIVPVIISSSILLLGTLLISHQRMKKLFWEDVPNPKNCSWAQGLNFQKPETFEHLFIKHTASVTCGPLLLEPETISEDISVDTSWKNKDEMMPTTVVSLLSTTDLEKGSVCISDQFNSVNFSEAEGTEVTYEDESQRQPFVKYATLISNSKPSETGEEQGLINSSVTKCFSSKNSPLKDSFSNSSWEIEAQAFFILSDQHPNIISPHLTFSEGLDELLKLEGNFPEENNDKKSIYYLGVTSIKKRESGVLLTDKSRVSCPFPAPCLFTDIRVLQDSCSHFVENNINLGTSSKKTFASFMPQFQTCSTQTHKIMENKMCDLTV

T2: wild-type human GP130 on HEK293.STAT3.Luc.GP130.hLEPR reporter cells (human, UniProt P40189 23-918)
T2 sequence (looked up): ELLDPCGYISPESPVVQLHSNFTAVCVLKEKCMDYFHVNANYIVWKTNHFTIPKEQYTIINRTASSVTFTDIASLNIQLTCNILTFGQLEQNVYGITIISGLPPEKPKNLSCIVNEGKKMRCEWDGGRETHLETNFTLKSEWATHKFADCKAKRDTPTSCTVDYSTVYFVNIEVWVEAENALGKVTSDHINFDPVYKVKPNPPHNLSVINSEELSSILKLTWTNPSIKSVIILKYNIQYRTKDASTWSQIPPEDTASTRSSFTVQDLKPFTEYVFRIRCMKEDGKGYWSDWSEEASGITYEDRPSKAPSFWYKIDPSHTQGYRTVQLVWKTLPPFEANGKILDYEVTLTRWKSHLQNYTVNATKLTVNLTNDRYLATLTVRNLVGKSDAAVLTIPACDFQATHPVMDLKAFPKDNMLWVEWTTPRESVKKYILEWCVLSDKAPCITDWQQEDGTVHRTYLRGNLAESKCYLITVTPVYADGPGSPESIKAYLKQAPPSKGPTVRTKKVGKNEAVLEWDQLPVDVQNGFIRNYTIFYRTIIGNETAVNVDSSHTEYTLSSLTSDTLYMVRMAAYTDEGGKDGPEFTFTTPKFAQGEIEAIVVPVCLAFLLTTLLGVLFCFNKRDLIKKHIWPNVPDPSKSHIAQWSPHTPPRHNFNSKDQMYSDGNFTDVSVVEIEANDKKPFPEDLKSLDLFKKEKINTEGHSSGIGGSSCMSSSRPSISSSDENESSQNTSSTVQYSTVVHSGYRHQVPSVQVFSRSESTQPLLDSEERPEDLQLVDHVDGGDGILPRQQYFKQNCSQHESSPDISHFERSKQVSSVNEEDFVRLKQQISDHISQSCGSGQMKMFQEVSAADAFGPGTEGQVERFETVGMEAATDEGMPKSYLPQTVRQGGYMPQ

T3: extracellular domain of human LEPR, GPI-anchored on HEK293/hLEPR-GPI cells (human, UniProt P48357 22-839, GPI anchor at the C-terminus ; GPI anchor at the C-terminus, added through the carboxypeptidase M signal peptide. The protein is displayed on the HEK293 cell membrane.)
T3 sequence: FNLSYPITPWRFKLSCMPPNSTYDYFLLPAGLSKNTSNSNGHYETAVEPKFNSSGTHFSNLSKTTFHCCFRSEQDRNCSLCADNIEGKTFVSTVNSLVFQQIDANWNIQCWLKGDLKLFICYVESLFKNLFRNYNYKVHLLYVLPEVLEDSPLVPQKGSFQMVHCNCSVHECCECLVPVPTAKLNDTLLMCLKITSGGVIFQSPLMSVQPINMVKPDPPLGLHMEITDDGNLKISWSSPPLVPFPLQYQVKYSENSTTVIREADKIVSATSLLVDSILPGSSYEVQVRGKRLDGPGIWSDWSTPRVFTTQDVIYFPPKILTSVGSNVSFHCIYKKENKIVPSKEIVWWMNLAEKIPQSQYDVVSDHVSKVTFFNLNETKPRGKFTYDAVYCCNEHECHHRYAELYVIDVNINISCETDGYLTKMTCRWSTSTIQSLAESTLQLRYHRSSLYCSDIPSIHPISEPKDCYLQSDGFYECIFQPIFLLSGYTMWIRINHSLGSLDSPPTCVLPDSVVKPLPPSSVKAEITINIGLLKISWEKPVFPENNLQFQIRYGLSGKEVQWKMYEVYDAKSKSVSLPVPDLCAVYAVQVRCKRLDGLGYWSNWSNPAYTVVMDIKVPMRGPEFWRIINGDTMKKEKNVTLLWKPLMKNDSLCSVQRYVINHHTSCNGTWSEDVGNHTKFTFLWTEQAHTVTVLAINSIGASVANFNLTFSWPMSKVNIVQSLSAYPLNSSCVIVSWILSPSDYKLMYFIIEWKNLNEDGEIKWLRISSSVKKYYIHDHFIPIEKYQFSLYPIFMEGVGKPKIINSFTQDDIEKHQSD

T4: full length human GP130 (leucine at position 2 changed to valine) on HEK293/Stat3-luc/gp130-2X Sort cells (human, UniProt P40189 23-918)
T4 construct: whole, on cells; also called HEK293/gp130 2X Sort
T4 sequence (looked up): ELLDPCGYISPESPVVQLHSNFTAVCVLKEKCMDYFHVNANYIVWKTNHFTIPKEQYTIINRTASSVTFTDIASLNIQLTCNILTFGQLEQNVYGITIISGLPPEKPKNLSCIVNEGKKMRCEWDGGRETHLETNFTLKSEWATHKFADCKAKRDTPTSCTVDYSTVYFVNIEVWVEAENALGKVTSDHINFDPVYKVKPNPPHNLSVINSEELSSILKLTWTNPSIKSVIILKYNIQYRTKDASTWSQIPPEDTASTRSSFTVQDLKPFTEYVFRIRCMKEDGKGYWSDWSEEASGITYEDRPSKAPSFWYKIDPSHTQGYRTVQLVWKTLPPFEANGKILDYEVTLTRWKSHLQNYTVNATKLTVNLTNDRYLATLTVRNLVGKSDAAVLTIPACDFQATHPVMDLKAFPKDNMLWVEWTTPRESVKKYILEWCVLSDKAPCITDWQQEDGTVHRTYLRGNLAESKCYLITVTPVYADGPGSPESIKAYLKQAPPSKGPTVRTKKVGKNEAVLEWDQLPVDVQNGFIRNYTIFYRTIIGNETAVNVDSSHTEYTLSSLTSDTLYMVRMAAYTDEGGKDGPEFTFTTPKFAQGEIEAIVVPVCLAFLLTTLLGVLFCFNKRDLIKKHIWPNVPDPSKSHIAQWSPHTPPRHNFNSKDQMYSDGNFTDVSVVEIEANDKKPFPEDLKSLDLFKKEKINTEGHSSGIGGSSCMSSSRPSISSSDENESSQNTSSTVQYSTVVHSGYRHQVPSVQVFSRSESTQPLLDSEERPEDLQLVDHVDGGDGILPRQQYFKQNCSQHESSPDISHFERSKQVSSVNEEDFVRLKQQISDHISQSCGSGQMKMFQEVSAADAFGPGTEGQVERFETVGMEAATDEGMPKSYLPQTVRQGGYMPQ


What was measured:
[1] = target: T1, mutant human LEPR (Y1141F) on …; assay: cell-based or functional assay
[2] = target: T2, wild-type human GP130 on …; assay: cell-based or functional assay
[3] = target: T3, extracellular domain of human LEPR, …; assay: FACS, 200 nM antibody, HEK293/hLEPR-GPI cells, No Leptin
Procedure: (§1) For the FACS analysis, 0.5×10^6 cells/well of HEK293 parental cells, HEK293/Stat3-luc/gp130-2X Sort cells, and HEK293/hLEPR-GPI cells, were incubated with 200 nM of the conventional antibodies against either GP130 or LEPR or with LEPR×GP130 bispecific antibodies, along with isotype control antibodies at 4° C. in PBS (without calcium and magnesium) containing 2% FBS.
(§2) Cells were fixed using BD CytoFix™ (Becton Dickinson, #554655) and analyzed on an IQue® (Intellicyt) Flow Cytometer. Unstained and secondary antibody alone controls were also tested for all cell lines. The results were analyzed using ForeCyt® (IntelliCyt) and FlowJo version 10 softwares to determine the geometric means of fluorescence for viable cells.

[4] = target: T4, full length human GP130 (leucine at …); assay: FACS, 200 nM antibody, HEK293/gp130 2X Sort cells
Procedure: as §1, §2

[5] = target: T3, extracellular domain of human LEPR, …; assay: FACS, 200 nM antibody, HEK293/hLEPR-GPI cells, 1 µM Leptin present
Procedure: as §1, §2

Binder	Percentage activation as compared to hOSM [1]	EC50 (M), STAT3-luciferase activation of HEK293.STAT3.Luc.GP130.hLEPR (Y1141F) cells, 10 nM leptin [2]	Percentage activation as compared to hOSM [2]	Binding Ratio: Normalized to Unstained Sample of Each Cell Line (FL4-A) [3]	Binding Ratio: Normalized to Unstained Sample of Each Cell Line (FL4-A) [4]	Binding Ratio: Normalized to Unstained Sample of Each Cell Line (FL4-A) [5]
bsAb21236D (bispecific antibody, V domains shown, LEPR x GP130 bispecific with common light chain; also called H4H21236D; bsAb21236 (LEPR × GP130)) VH 1: QVQLQESGPGLVKPSQTLSLTCTVSGGSISSGGDYWSWIRQLPGKGLEWIGYIYYSGSAYYNPSLKSRGTISIDTSKNQFSLKLTSVTAADTAVYFCVKLRFLEWFLGGWFGPWGQGTLVTVSS VH 2: QVQLVESGGGLVKPGGSLRLSCAASGFTFSDYYMTWIRQTPGKGLDWVSYISSSGTNKYNADSVKGRFTISRDNAKNSLYLQMNSLRAEDTAVYYCVRDPPWGMDVWGQGTTVTVSS VL: not shown	25%	2.11e-09 M	25%	4420 ratio	132 ratio	3600 ratio
mAb18445 (antibody, V domains shown, Conventional anti-LEPR antibody; also called mAB18445 (anti-LEPR mAb)) VH: QVQLQESGPGLVKPSQTLSLTCTVSGGSISSGGDYWSWIRQLPGKGLEWIGYIYYSGSAYYNPSLKSRGTISIDTSKNQFSLKLTSVTAADTAVYFCVKLRFLEWFLGGWFGPWGQGTLVTVSS VL: not shown	–	–	–	4710 ratio	–	4250 ratio
mAb16683 (antibody, V domains shown, Conventional anti-GP130 antibody; also called mAb16683 (anti-GP130 mAb)) VH: QVQLVESGGGLVKPGGSLRLSCAASGFTFSDYYMTWIRQTPGKGLDWVSYISSSGTNKYNADSVKGRFTISRDNAKNSLYLQMNSLRAEDTAVYYCVRDPPWGMDVWGQGTTVTVSS VL: not shown	–	–	–	21 ratio	235 ratio	–
